Measurements taken from patent publication US20100284934A1.

What was measured:
[1] = molecular target: aggregated recombinant human α-synuclein produced by aging (amyloid fibrils) (human) (UniProt P37840); experiment: ELISA, α-synuclein coated at 100 pmol/well, range of peptide concentrations
[2] = molecular target: aggregated recombinant human α-synuclein produced by aging (amyloid fibrils) (human) (UniProt P37840); experiment: ELISA, α-synuclein coated at 200 pmol/well, range of peptide concentrations
[3] = molecular target: dopamine treated recombinant human α-synuclein (soluble aggregates, oligomers) (human) (UniProt P37840); experiment: ELISA, α-synuclein coated, peptide in solution

Substance | lowest binding concentration detected [1] | lowest binding concentration detected [2] | lowest binding concentration detected [3]
OR1, Gd-DOTA-rGtvvaGK(biotin)-rrrrrr (peptide) | 10 pmol/well |  | 
OR2, Gd-DOTA-rGvvaGK(biotin)-rrrrrr (peptide) | 10 pmol/well |  | 
OR3, Gd-DOTA-rrrrrrGtvvaGK(biotin)-r (peptide) |  | 10 pmol/well | 
OR4, Gd-DOTA-rrrrrrGvvaGK(biotin)-r (peptide) |  | 10 pmol/well | 
OR5, Gd-DOTA-r-Sar-vva-Sar-K(biotin)-rrrrrr (peptide) |  | 10 pmol/well | 1 pmol/well
